The text below walks through data of patent US20210008108A1 (ETABLISSEMENT FRANCAIS DU SANG, published 2021).

The target in this assay is T1, recombinant fusion protein consisting of the extra cellular part of IL-1RAP and the Fc-part of human IgG1 … (human, UniProt Q9NPH3 21-367).
T1 construct: extracellular domain; also called IL-1RAP recombinant protein; recombinant IL-1RAP protein; not shown: Fc-part of human IgG1
T1 sequence (looked up): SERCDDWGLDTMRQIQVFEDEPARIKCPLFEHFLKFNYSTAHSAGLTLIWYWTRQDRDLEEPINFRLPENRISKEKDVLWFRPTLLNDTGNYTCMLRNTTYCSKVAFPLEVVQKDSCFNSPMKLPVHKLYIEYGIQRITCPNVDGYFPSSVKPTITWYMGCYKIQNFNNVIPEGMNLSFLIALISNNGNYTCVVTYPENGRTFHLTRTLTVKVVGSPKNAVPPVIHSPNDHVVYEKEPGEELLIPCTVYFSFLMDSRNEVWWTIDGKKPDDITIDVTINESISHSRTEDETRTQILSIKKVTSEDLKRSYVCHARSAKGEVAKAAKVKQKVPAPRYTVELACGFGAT
In words: ELISA, IL-1RAP protein captured by coated anti-human Fc, detected with anti-mouse Fc-HRP. The source says: Anti-human Fc antibody was coated on a bottom of a plastic ELISA plate.

B1: mouse anti-hIL-1RAP monoclonal antibody clone #E3C3 (antibody, V domains shown)
VH: QVQLQQPGAELMMPGASVKVSCEASGYTFTDSWMHWVKQRPGQGLEWIGAIDPSDSYTTYNQKFTGKATLSVDESSNTAYMQLSSLTSEDSAVYYCARYYSGSNYISPFPYWGQGTLVTVSA
VL: DIVMTQSHKFMSTSVGDRVTITCKASLDVSTAVAWYQQKPGQSPKLLIYSASYRYTGVPDRFTGSGSGTDFTFTISSVQAEDLAVYYCQQHYSPPFTFGSGTNLEIK
notes: Murine hybridoma antibody; It was Alexa Fluor 488 labelled in some flow cytometry; also called #A3C3; #E3C3 mAb
For B1, the binding result was “binds”.
